Reference: article PMC5461540, “MOB1 Mediated Phospho-recognition in the Core Mammalian Hippo Pathway” (Molecular & Cellular Proteomics : MCP, 2017)

Target: MOB1B 2-216 (UniProt Q7L9L4)
Assay: SPOT peptide array overlaid with GST-MOB1B

Substance | binding against the reference (reference: nonphosphorylated T353 15-mer, sites T353) | binding against the reference (reference: nonphosphorylated T367 15-mer, sites T367)
MST1 (from UniProt Q13043) pT353 15-mer | stronger | –
MST1 (from UniProt Q13043) pT367 15-mer | – | stronger
